Laboratory results as given in PMC2700308 (Biochemistry, 2009).
Square brackets hold non-standard residues; d marks the D form. Ends that are not written are not given here. sY = N[C@@H](Cc1ccc(OS(=O)(=O)O)cc1)C(=O)O

Target: Full-length gp120 from the subtype B YU2 HIV-1 strain (HIV-1, subtype B, strain YU2, UniProt P35961 32-498)
Experiment: ITC

B1: S22 peptide, 22 amino acid tyrosine-sulfated peptide corresponding to the CCR5 N-terminus (peptide)
peptide: MDYQVSSPI[sY]DIN[sY]YTSEPSQK
  Kd: ≥ 1 mM
